Measured values: PMC8080067, “Tight binding of cytochrome b5 to cytochrome P450 17A1 is a critical feature of stimulation of C21 steroid lyase activity and androgen synthesis” (The Journal of Biological Chemistry, 2021)
Positions count from the first letter of the chain named.

Columns and labels:
WT P450 17A1 = molecular target: T1, WT P450 17A1 (Homo sapiens, UniProt P05093); assay type: biochemical; parameters: made in house; host or cells: Escherichia coli (P450 17A1 in JM109)
T1 sequence (P05093 1-508): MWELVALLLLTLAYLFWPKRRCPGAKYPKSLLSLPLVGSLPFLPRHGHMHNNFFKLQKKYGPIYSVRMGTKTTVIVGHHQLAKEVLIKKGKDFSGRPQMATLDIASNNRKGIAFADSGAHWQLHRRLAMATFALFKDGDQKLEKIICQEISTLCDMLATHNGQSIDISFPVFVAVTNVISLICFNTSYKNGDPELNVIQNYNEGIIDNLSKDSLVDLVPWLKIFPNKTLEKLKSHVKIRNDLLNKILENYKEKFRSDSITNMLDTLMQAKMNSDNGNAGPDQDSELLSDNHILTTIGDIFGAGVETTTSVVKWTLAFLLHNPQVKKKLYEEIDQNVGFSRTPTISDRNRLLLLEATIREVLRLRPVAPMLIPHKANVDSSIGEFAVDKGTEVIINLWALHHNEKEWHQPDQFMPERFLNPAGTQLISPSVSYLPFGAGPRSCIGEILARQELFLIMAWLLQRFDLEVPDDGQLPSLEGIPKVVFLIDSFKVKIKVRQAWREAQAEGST
Method: Figure S4. Stimulation of lyase activities by b5, T70C- b5, and NanoTemper Blue-T70C-b5. Catalytic assays for the lyase reactions were performed and analyzed as described in the main text.

P450 17A1 R358Q variant = molecular target: T2, P450 17A1 R358Q variant (Homo sapiens, UniProt P05093, R358Q)
T2 sequence (P05093 1-508 R358Q): T1 sequence (P05093 1-508) with R358Q
Method: (§1) P450 catalytic activity assays to measure steroid hydroxylation and lyase reactions were carried out as described previously ([23], [37], [64]).
(§2) The reactions were initiated by adding an NADPH-regenerating system (final concentrations of 15 mM glucose 6-phosphate, 1.5 mM NADP^+, and 1 IU ml^−1 glucose 6-phosphate dehydrogenase) ([75]) and terminated by quenching and extracting with 2.0 ml CH2Cl2. Aliquots of the organic phases were dried and then dissolved in 100 μl of a CH3CN/H2O (1:1, v/v) mixture. […] The extraction procedure was then repeated, and the (Δ^4) reaction products were analyzed in a Waters Acquity UPLC system using a BEH C18 octadecylsilane column (2.1 mm × 100 mm, 1.7 μm). The reaction products were resolved using a mobile phase composed of solvents A (70% CH3OH, 30% H2O, v/v) and B (CH3CN), at a flow rate of 0.2 ml min^−1. The mobile phase linear gradient proceeded as follows: 0 to 1 min, 5% B; 4 min, 30% B; 4.5 min, 40% B; 4.55 to 6.75 min, 95% BA; and 7 to 10 min, 5% B. The reaction products were identified by coelution with commercial standards and quantified by the A243 peak areas. Steady-state kinetic parameters were estimated using nonlinear regression of hyperbolic fits in GraphPad Prism software, with equations used for kcat and the specificity constant kcat/Km ([76]): Y = (ksp ∗ X)/(1 + (ksp ∗ X/kcat)) and then deriving Km by division.

P450 17A1 R347H variant = molecular target: T3, P450 17A1 R347H variant (Homo sapiens, UniProt P05093, R347H)
T3 sequence (P05093 1-508 R347H): T1 sequence (P05093 1-508) with R347H
Method: as §1, §2

P450 17A1 = test system: P450 17A1; parameters: method as in PMID 30468857; details: SPR; cited from earlier work

B1: b5: recombinant human cytochrome b5, unlabeled (protein)
chain: MAEQSDEAVKYYTLEEIQKHNHSKSTWLILHHKVYDLTKFLEEHPGGEEVLREQAGGDATENFEDVGHSTDAREMSKTFIIGELHPDDRPKLNKPPETLITTIDSSSS
- stimulation of lyase activities (WT P450 17A1): stimulated by b5 in a concentration-dependent manner
- stimulation of lyase reactions (P450 17A1 R358Q variant): did not display b5 concentration-dependent stimulation
- stimulation of lyase reactions (P450 17A1 R347H variant): did not display b5 concentration-dependent stimulation
- on-rate constants (P450 17A1): 360 to 5000 M⁻¹ s⁻¹
